# According to patent US20260167959A1, “APTAZYME-BASED REGULATABLE GENE EXPRESSION SYSTEMS” (REJUVENATE BIO INC, priority 2022, published 2026):
# Numbering of substitutions follows the chain as printed.
# B1: RA006 (nucleic acid)
# DNA: GCGCGTCCTGGATTCGCGGAAACGCGTACATCCAGCTGACGAGTCCCAAATAGGACGAAACGAGTGATACCAGCATCGTCTTGATGCCCTTGGCAGCACTCGC
# modifications: expressed or natural sequence
# B2: RA071 (nucleic acid)
# DNA: B1 DNA with A63C, T65G, G66A, C94A, C97T, A98C, T100G
# modifications: expressed or natural sequence
# B3: RA072 (nucleic acid)
# DNA: GCGCGTCCTGGATTCGCGGAAACGCGTACCGAGAATACCAGCATCGTCTTGATGCCCTTGGAAGTCTCGATCCAGCTGACGAGTCCCAAATAGGACGAAACGCGC
# modifications: expressed or natural sequence
# B4: RA067 (nucleic acid)
# DNA: GCGCGTCCTGGATTCGCGGAAACGCGTACATCCAGTGATACCAGCATCGTCTTGATGCCCTTGGCAGCACTAGCTGACGAGTCCCAAATAGGACGAAACGCGC
# modifications: expressed or natural sequence
# B5: RA066 (nucleic acid)
# DNA: GCGCGTCCTGGATTCGCGGAAAGAATACCAGCATCGTCTTGATGCCCTTGGAAGTCTACGCGTACATCCAGCTGACGAGTCCCAAATAGGACGAAACGCGC
# modifications: expressed or natural sequence
# B6: RA068 (nucleic acid)
# DNA: GCGCGTCCTGGATTCGCCCGGAATACCAGCATCGTCTTGATGCCCTTGGAAGTCCGGGGAAACGCGTACATCCAGCTGACGAGTCCCAAATAGGACGAAACGCGC
# modifications: expressed or natural sequence
# B7: RA074 (nucleic acid)
# DNA: GCGCGTCCTGGATTCGCGGAAACGCGTACATCCAGCTGACGAGTCAGAATACCAGCATCGTCTTGATGCCCTTGGAAGTCTCCAAATAGGACGAAACGCGC
# modifications: expressed or natural sequence
# B8: RA079 (nucleic acid)
# DNA: GCGCGTCCTGGATTCGCGGAAACGCGTACATCCAGCGAGAATACCAGCATCGTCTTGATGCCCTTGGAAGTCTCGCTGACGAGTCCCAAATAGGACGAAACGCGC
# modifications: expressed or natural sequence
# B9: RA075 (nucleic acid)
# DNA: GCGCGTCCTGGATTCGCGGAAACGCGTACATCCAGCTGACGAGTCCCAAATAGGACGAAAGTGATACCAGCATCGTCTTGATGCCCTTGGCAGCACTACGCGC
# modifications: expressed or natural sequence
# B10: RA007 (nucleic acid)
# DNA: GCGCGTCCTGGATTCGCGGAAACGCGTACATCCAGCTGACGAGTCCCAAATAGGACGAAACGCGAGAATACCAGCATCGTCTTGATGCCCTTGGAAGTCTCGCGC
# modifications: expressed or natural sequence
# B11: RA076 (nucleic acid)
# DNA: GCGCGTCCTGGATTCGCGGGAGAATACCAGCATCGTCTTGATGCCCTTGGAAGTCTCAAACGCGTACATCCAGCTGACGAGTCCCAAATAGGACGAAACGCGC
# modifications: expressed or natural sequence
# B12: RA069 (nucleic acid)
# DNA: GCGCGTCCTGGATTCGCGGAAACGCGTACATCCAGCTGACGAGTCCCGGAATACCAGCATCGTCTTGATGCCCTTGGAAGTCCAAATAGGACGAAACGCGC
# modifications: expressed or natural sequence
# B13: RA005 (nucleic acid)
# DNA: GCGCGTCCTGGATTCGCGGAAACCGGAATACCAGCATCGTCTTGATGCCCTTGGAAGTCCGGCGCGTACATCCAGCTGACGAGTCCCAAATAGGACGAAACGCGC
# modifications: expressed or natural sequence
# B14: RA059 (nucleic acid)
# DNA: GCGCGTCCTGGATTCCCGGAATACCAGCATCGTCTTGATGCCCTTGGAAGTCCGGGCGGAAACGCGTACATCCAGCTGACGAGTCCCAAATAGGACGAAACGCGC
# modifications: expressed or natural sequence
# B15: RA065 (nucleic acid)
# DNA: GCTGTCACCGGAATACCAGCATCGTCTTGATGCCCTTGGAAGTCCGGTCTGATGAGTCCCAGAAGGACGAAACAGC
# modifications: expressed or natural sequence
# B16: RA058 (nucleic acid)
# DNA: GCGCGTCCTGGATTCGCGGAAACGCGTACATCCAGAGAATACCAGCATCGTCTTGATGCCCTTGGAAGTCTCGCTGACGAGTCCCAAATAGGACGAAACGCGC
# modifications: expressed or natural sequence
# B17: RA077 (nucleic acid)
# DNA: GCGCGTCCAGTGATACCAGCATCGTCTTGATGCCCTTGGCAGCACTTGGATTCGCGGAAACGCGTACATCCAGCTGACGAGTCCCAAATAGGACGAAACGCGC
# modifications: expressed or natural sequence
# B18: RA078 (nucleic acid)
# DNA: GCGCGTCCTGGATTCGCGGAAACGCGTACATCCAGCTGACGAGTCCCAAATAGGACGAAACGCCGAGAATACCAGCATCGTCTTGATGCCCTTGGAAGTCTCGGC
# modifications: expressed or natural sequence
# B19: RA057 (nucleic acid)
# DNA: GCGCGTCCTGGATTCGCGGAAACGCGTACATCCAGCTGACGAGTCCCAAATAGGACAGAATACCAGCATCGTCTTGATGCCCTTGGAAGTCTGAAACGCGC
# modifications: expressed or natural sequence
# B20: RA061 (nucleic acid)
# DNA: GCGCGTCCTGGATTCGCGGAAACGCGTACATCCAGCTGACGAGTCCCAAATAGGACGAAACGCGCGGAATACCAGCATCGTCTTGATGCCCTTGGAAGTCC
# modifications: expressed or natural sequence
# B21: RA070 (nucleic acid)
# DNA: GCGCGTCCTGGATTCGCGGAAACGCGTACATCCAGCTGAGTGATACCAGCATCGTCTTGATGCCCTTGGCAGCACTACGAGTCCCAAATAGGACGAAACGCGC
# modifications: expressed or natural sequence
# B22: RA063 (nucleic acid)
# DNA: GCGCGTCCTGGATTCAGTGATACCAGCATCGTCTTGATGCCCTTGGCAGCACTGCGGAAACGCGTACATCCAGCTGACGAGTCCCAAATAGGACGAAACGCGC
# modifications: expressed or natural sequence
# B23: RA056 (nucleic acid)
# DNA: GCGCGTCCTGGATTCGCGGAAACGCGTACATCCAGCTGACGAGTCCCGAGAATACCAGCATCGTCTTGATGCCCTTGGAAGTCTCAAATAGGACGAAACGCGC
# modifications: expressed or natural sequence
# B24: RA080 (nucleic acid)
# DNA: GCGCGTCCTGGATTCGGAGAATACCAGCATCGTCTTGATGCCCTTGGAAGTCTCCGGAAACGCGTACATCCAGCTGACGAGTCCCAAATAGGACGAAACGCGC
# modifications: expressed or natural sequence
# B25: RA062 (nucleic acid)
# DNA: GCGCGTCCTGGATTCGCGGAAACGCCCGGAATACCAGCATCGTCTTGATGCCCTTGGAAGTCCGGGTACATCCAGCTGACGAGTCCCAAATAGGACGAAACGCGC
# modifications: expressed or natural sequence
# B26: RA073 (nucleic acid)
# DNA: GCGCGTCCTGGATTCGCGGAAACGCGTACACGGAATACCAGCATCGTCTTGATGCCCTTGGAAGTCCGTCCAGCTGACGAGTCCCAAATAGGACGAAACGCGC
# modifications: expressed or natural sequence
# B27: RA060 (nucleic acid)
# DNA: GCGCGTCCTGGATTCGCGGAAACGCGTACATCCAGCTGACGAGTCCCAAATAGGACGAAACGCGGGAATACCAGCATCGTCTTGATGCCCTTGGAAGTCCC
# modifications: expressed or natural sequence
# B28: RA064 (nucleic acid)
# DNA: GCGCGTCCTGGATTCGCGGAAACGCGTACAGAATACCAGCATCGTCTTGATGCCCTTGGAAGTCTATCCAGCTGACGAGTCCCAAATAGGACGAAACGCGC
# modifications: expressed or natural sequence
# Tested on: Renilla luciferase RNA
# Assay: Barcoded aptazyme variant library screen: un-cleaved Renilla luciferase RNA by barcode read counts, HEK293-T cells
# Format: cell-based
# Conditions: un-cleaved Renilla luciferase RNA, HEK293-T cells cultured with 1 mM theophylline (ON) over without theophylline (OFF); barcode read counts, triplicate
# How it was run: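 Aptazyme variants (seven theophylline aptamers inserted after each T3H48 ribozyme nucleotide, 9-nt barcoded) cloned into the 3′ UTR of Renilla luciferase in psiCHECK-2; cells cultured ± theophylline, in triplicate. RNA and DNA barcodes amplified and sequenced; normalized read counts gave un-cleaved RNA fraction and ON/OFF fold-change.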
row,Molecule,Fold change in RNA expression between the ON state and the OFF state
1,B1,5.0 fold
2,B2,1.8 fold
3,B3,1.8 fold
4,B4,1.8 fold
5,B5,1.9 fold
6,B6,1.8 fold
7,B7,1.8 fold
8,B8,1.8 fold
9,B9,1.8 fold
10,B10,4.5 fold
11,B11,1.8 fold
12,B12,1.8 fold
13,B13,5.2 fold
14,B14,1.9 fold
15,B15,1.9 fold
16,B16,2.0 fold
17,B17,1.8 fold
18,B18,1.8 fold
19,B19,2.0 fold
20,B20,1.9 fold
21,B21,1.8 fold
22,B22,1.9 fold
23,B23,2.0 fold
24,B24,1.7 fold
25,B25,1.9 fold
26,B26,1.8 fold
27,B27,1.9 fold
28,B28,1.9 fold
